Reference: article PMC5214336

Legend:
[1] = biological target: Bos1 model TA substrate labelled with 7-hydroxycoumaryl ethylglycine (Cm) (S. cerevisiae) (UniProt P25385); assay: FRET or BRET; stopped-flow time course of TA transfer from Sgt2 to Get3^BDP without Get4/5
[2] = biological target: 4AG model TA substrate labelled with Cm (S. cerevisiae) (UniProt P25385); assay: FRET or BRET; equilibrium titration of TA transfer from Sgt2 to Get3: 20-50 nM purified Sgt2•TA^Cm, 150 nM Sgt2, 150 nM Get4/5, 2 mM ATP, varied Get3^BDP; GET buffer, 25°C; apparent K1/2 at 150 nM Sgt2
[3] = biological target: 2AG model TA substrate labelled with Cm (S. cerevisiae) (UniProt P25385); assay: as above
[4] = biological target: 5AG model TA substrate labelled with Cm (S. cerevisiae) (UniProt P25385); assay: as above
[5] = biological target: Bos1-FisC model TA substrate labelled with Cm (S. cerevisiae); assay: as above
[6] = biological target: Bos1 model TA substrate labelled with 7-hydroxycoumaryl ethylglycine (Cm) (S. cerevisiae) (UniProt P25385); assay: as above
[7] = biological target: 3AG model TA substrate labelled with Cm (S. cerevisiae) (UniProt P25385); assay: as above
[8] = biological target: 4AG model TA substrate labelled with Cm (S. cerevisiae) (UniProt P25385); assay: FRET or BRET; stopped-flow time courses of TA transfer with Get4/5: ~50 nM Sgt2•TA^Cm in 150 nM Sgt2 mixed 1:1 with 400 nM Get3^BDP, 400 nM Get4/5, 2 mM ATP; donor fluorescence at 445 nm; biphasic fit
[9] = biological target: 2AG model TA substrate labelled with Cm (S. cerevisiae) (UniProt P25385); assay: as above
[10] = biological target: 5AG model TA substrate labelled with Cm (S. cerevisiae) (UniProt P25385); assay: as above
[11] = biological target: Bos1-FisC model TA substrate labelled with Cm (S. cerevisiae); assay: as above
[12] = biological target: Bos1 model TA substrate labelled with 7-hydroxycoumaryl ethylglycine (Cm) (S. cerevisiae) (UniProt P25385); assay: as above
[13] = biological target: 3AG model TA substrate labelled with Cm (S. cerevisiae) (UniProt P25385); assay: as above
[14] = biological target: 6AG model TA substrate labelled with Cm (S. cerevisiae) (UniProt P25385); assay: FRET or BRET; pulse-chase: 20-50 nM preformed purified Get3^BDP•TA^Cm chased with a 10-fold excess of unlabeled Get3; loss of FRET followed in time
[15] = biological target: 4AG model TA substrate labelled with Cm (S. cerevisiae) (UniProt P25385); assay: as above
[16] = biological target: 2AG model TA substrate labelled with Cm (S. cerevisiae) (UniProt P25385); assay: as above
[17] = biological target: 5AG model TA substrate labelled with Cm (S. cerevisiae) (UniProt P25385); assay: as above
[18] = biological target: Bos1-FisC model TA substrate labelled with Cm (S. cerevisiae); assay: as above
[19] = biological target: Bos1 model TA substrate labelled with 7-hydroxycoumaryl ethylglycine (Cm) (S. cerevisiae) (UniProt P25385); assay: as above
[20] = biological target: 3AG model TA substrate labelled with Cm (S. cerevisiae) (UniProt P25385); assay: as above

B1: BODIPY-FL-labeled ybbR-Get3 (enzyme)
chain: MDLTVEPNLHSLITSTTHKWIFVGGKGGVGKTTSSCSIAIQMALSQPNKQFLLISTDPAHNLSDAFGEKFGKDARKVTGMNNLSCMEIDPSAALKDMNDMAVSRANNNGSDGQGDDLGSLLQGGALADLTGSIPGIDEALSFMEVMKHIKRQEQGEGETFDTVIFDTAPTGHTLRFLQLPNTLSKLLEKFGEITNKLGPMLNSFMGAGNVDISGKLNELKANVETIRQQFTDPDLTTFVCVCISEFLSLYETERLIQELISYDMDVNSIIVNQLLFAENDQEHNCKRCQARWKMQKKYLDQIDELYEDFHVVKMPLCAGEIRGLNNLTKFSQFLNKEYNPITDGKVIYELEDKE
modifications: CoA-BODIPY-FL enzymatically conjugated to the ybbR tag by the Sfp phosphopantetheinyl transferase
**Q.** For B1, which k fast of TA transfer from Sgt2 to Get3 (fast phase) [1] is on record?
**A.** The k fast of TA transfer from Sgt2 to Get3 (fast phase) was 0.0094 s⁻¹.

**Q.** What about the k slow of TA transfer from Sgt2 to Get3 (slow phase) [1] of the same binder?
**A.** The k slow of TA transfer from Sgt2 to Get3 (slow phase) was 0.003 s⁻¹.

**Q.** And the t1/2 of TA transfer from Sgt2 to Get3 [1]?
**A.** Its t1/2 of TA transfer from Sgt2 to Get3 is 98 s.

**Q.** What about the K1/2 (Get3 for 50% TA transfer from Sgt2, at 150 nM Sgt2) [2] of the same binder?
**A.** Its K1/2 (Get3 for 50% TA transfer from Sgt2, at 150 nM Sgt2) is 5.7 nM.

**Q.** What about the K1/2 (Get3 for 50% TA transfer from Sgt2, at 150 nM Sgt2) [3] of the same binder?
**A.** Its K1/2 (Get3 for 50% TA transfer from Sgt2, at 150 nM Sgt2) is 6.4 nM.

**Q.** And the K1/2 (Get3 for 50% TA transfer from Sgt2, at 150 nM Sgt2) [4]?
**A.** Its K1/2 (Get3 for 50% TA transfer from Sgt2, at 150 nM Sgt2) is 10 nM.

**Q.** And the K1/2 (Get3 for 50% TA transfer from Sgt2, at 150 nM Sgt2) [5]?
**A.** The K1/2 (Get3 for 50% TA transfer from Sgt2, at 150 nM Sgt2) was 9.2 nM.

**Q.** What about the K1/2 (Get3 for 50% TA transfer from Sgt2, at 150 nM Sgt2) [6] of the same binder?
**A.** The K1/2 (Get3 for 50% TA transfer from Sgt2, at 150 nM Sgt2) was 5.2 nM.

**Q.** What about the K1/2 (Get3 for 50% TA transfer from Sgt2, at 150 nM Sgt2) [7] of the same binder?
**A.** Its K1/2 (Get3 for 50% TA transfer from Sgt2, at 150 nM Sgt2) is 3.7 nM.

**Q.** And the k fast of TA transfer from Sgt2 to Get3 (fast phase) [8]?
**A.** Its k fast of TA transfer from Sgt2 to Get3 (fast phase) is 0.183 s⁻¹.

**Q.** And the k slow of TA transfer from Sgt2 to Get3 (slow phase) [8]?
**A.** Its k slow of TA transfer from Sgt2 to Get3 (slow phase) is 0.033 s⁻¹.

**Q.** And the t1/2 of TA transfer from Sgt2 to Get3 [8]?
**A.** The t1/2 of TA transfer from Sgt2 to Get3 was 6.3 s.

**Q.** And the k fast of TA transfer from Sgt2 to Get3 (fast phase) [9]?
**A.** The k fast of TA transfer from Sgt2 to Get3 (fast phase) was 0.077 s⁻¹.

**Q.** What about the k slow of TA transfer from Sgt2 to Get3 (slow phase) [9] of the same binder?
**A.** The k slow of TA transfer from Sgt2 to Get3 (slow phase) was 0.007 s⁻¹.

**Q.** And the t1/2 of TA transfer from Sgt2 to Get3 [9]?
**A.** The t1/2 of TA transfer from Sgt2 to Get3 was 13.5 s.

**Q.** What about the k fast of TA transfer from Sgt2 to Get3 (fast phase) [10] of the same binder?
**A.** The k fast of TA transfer from Sgt2 to Get3 (fast phase) was 0.151 s⁻¹.

**Q.** And the k slow of TA transfer from Sgt2 to Get3 (slow phase) [10]?
**A.** The k slow of TA transfer from Sgt2 to Get3 (slow phase) was 0.023 s⁻¹.

**Q.** What about the t1/2 of TA transfer from Sgt2 to Get3 [10] of the same binder?
**A.** The t1/2 of TA transfer from Sgt2 to Get3 was 11.8 s.

**Q.** And the k fast of TA transfer from Sgt2 to Get3 (fast phase) [11]?
**A.** The k fast of TA transfer from Sgt2 to Get3 (fast phase) was 0.063 s⁻¹.

**Q.** And the k slow of TA transfer from Sgt2 to Get3 (slow phase) [11]?
**A.** Its k slow of TA transfer from Sgt2 to Get3 (slow phase) is 0.009 s⁻¹.

**Q.** What about the t1/2 of TA transfer from Sgt2 to Get3 [11] of the same binder?
**A.** The t1/2 of TA transfer from Sgt2 to Get3 was 12.3 s.

**Q.** And the k fast of TA transfer from Sgt2 to Get3 (fast phase) [12]?
**A.** Its k fast of TA transfer from Sgt2 to Get3 (fast phase) is 0.047 s⁻¹.

**Q.** And the k slow of TA transfer from Sgt2 to Get3 (slow phase) [12]?
**A.** The k slow of TA transfer from Sgt2 to Get3 (slow phase) was 0.011 s⁻¹.

**Q.** And the t1/2 of TA transfer from Sgt2 to Get3 [12]?
**A.** Its t1/2 of TA transfer from Sgt2 to Get3 is 17.7 s.

**Q.** And the k fast of TA transfer from Sgt2 to Get3 (fast phase) [13]?
**A.** Its k fast of TA transfer from Sgt2 to Get3 (fast phase) is 0.164 s⁻¹.

**Q.** What about the k slow of TA transfer from Sgt2 to Get3 (slow phase) [13] of the same binder?
**A.** The k slow of TA transfer from Sgt2 to Get3 (slow phase) was 0.017 s⁻¹.

**Q.** And the t1/2 of TA transfer from Sgt2 to Get3 [13]?
**A.** The t1/2 of TA transfer from Sgt2 to Get3 was 4.8 s.

**Q.** What about the koff [14] of the same binder?
**A.** Its koff is 0.00333 s⁻¹.

**Q.** What about the koff [15] of the same binder?
**A.** The koff was 0.000283 s⁻¹.

**Q.** What about the koff [16] of the same binder?
**A.** Its koff is 0.000383 s⁻¹.

**Q.** What about the koff [17] of the same binder?
**A.** The koff was 0.000567 s⁻¹.

**Q.** And the koff [18]?
**A.** Its koff is 0.000483 s⁻¹.

**Q.** What about the koff [19] of the same binder?
**A.** Its koff is 0.0003 s⁻¹.

**Q.** What about the koff [20] of the same binder?
**A.** Its koff is 0.000433 s⁻¹.
